Among the data in US20220056146A1 (TASRIF PHARMACEUTICAL, published 2022) are EC50, binding result and Kd values, retold here.

Test [1] addresses T1, human CD155 (poliovirus receptor, PVR) on cells (U87/U87MG, HAP1) (human, UniProt P15151 21-417).
T1 construct: whole, on cells
T1 sequence (looked up): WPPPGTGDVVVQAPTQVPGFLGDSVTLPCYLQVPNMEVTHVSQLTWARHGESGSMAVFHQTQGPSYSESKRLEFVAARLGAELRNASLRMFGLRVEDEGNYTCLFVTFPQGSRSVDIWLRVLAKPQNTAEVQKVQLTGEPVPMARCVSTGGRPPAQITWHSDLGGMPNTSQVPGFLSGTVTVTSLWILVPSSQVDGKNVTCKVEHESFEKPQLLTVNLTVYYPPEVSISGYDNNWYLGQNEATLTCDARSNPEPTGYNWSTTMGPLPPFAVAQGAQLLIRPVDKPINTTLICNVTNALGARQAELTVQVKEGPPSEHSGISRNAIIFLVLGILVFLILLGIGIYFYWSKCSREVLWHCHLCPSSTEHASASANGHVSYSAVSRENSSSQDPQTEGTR
As to the kind of experiment: cell binding on HAP-1 cells.

Test [2] concerns the target T1, human CD155 (poliovirus receptor, PVR) …. As to the kind of experiment: cell binding on U-87 cells.
Test [3] concerns the target T2, African green monkey PVR (CD 155) on Vero cells (African green monkey).
T2 construct: whole, on cells
As to the kind of experiment: cell binding on Vero cells.

The target in test [4] is T1, human CD155 (poliovirus receptor, PVR) …. The experiment in a line: in vivo fluorescence imaging of mice with U87MG tumors, 72 hours after injection. The protocol: Ab825-VT680 conjugate binds and accumulates in U87MG tumors In Vivo. The control mice were either untreated or treated with VT 680 dye alone.
In test [5] the target is T3, poliovirus receptor (PVR, CD 155), form not stated (UniProt P15151 21-343, limits assumed).
T3 sequence (looked up): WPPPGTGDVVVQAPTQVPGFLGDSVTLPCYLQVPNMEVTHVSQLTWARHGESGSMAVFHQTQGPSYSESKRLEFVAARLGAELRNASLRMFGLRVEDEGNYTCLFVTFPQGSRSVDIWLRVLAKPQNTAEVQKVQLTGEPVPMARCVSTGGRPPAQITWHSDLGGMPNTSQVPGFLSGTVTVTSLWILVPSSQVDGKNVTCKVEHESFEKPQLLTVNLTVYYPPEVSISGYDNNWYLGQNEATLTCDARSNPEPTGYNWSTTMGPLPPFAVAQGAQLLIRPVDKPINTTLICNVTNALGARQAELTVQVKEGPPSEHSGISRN
The experiment in a line: surface plasmon resonance (Biacore). (SPR reads the build-up and loss of mass on a sensor chip optically.)

T2 sequence (P32506 21-417): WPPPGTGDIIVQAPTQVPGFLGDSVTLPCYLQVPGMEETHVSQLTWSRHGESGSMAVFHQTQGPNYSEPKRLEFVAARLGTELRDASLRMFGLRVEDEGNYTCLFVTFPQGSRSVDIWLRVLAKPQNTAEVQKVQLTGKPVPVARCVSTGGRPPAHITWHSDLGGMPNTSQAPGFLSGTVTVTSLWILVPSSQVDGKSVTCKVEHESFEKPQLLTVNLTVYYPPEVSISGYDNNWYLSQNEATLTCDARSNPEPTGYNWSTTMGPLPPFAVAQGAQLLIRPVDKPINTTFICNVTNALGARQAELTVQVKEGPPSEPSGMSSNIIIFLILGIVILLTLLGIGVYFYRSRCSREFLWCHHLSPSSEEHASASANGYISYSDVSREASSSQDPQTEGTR

B1: Ab825 (VH0/VK0), human IgG1 chimeric antibody (antibody, V domains shown)
VH: EVQLQQSGPELVKPGASVKISCKTSGYTFTEYTMHWVKQSHGKSLEWIGGIHPNNGDTSYNQRFKGKATLTVDKSSSTAYMELRSLTSEDSAVYYCARWTGDFDYWGQGTTLTVST
VL: DIVMTQSPKFMSTSVGDRVSVTCKASQNVGTNVAWYQQKPGQSPKALIYSASYRYSGVPDRFTGSGSGTDFTLTISNVQSEDLAEYFCQQYNSYPYTFGGGTKLEIK
notes: Murine variable regions in a human IgG1 chimeric antibody, derived from D171
In general, EC50 refers to the concentration that produces a half-maximal response. B1: the EC50 in test [1] worked out at 0.0487 µg/mL; in test [2], 0.0869 µg/mL; in test [3] it was 0.086 µg/mL.

B2: Ab825-VT680 conjugate (antibody, V domains shown)
VH: EVQLQQSGPELVKPGASVKISCKTSGYTFTEYTMHWVKQSHGKSLEWIGGIHPNNGDTSYNQRFKGKATLTVDKSSSTAYMELRSLTSEDSAVYYCARWTGDFDYWGQGTTLTVST
VL: DIVMTQSPKFMSTSVGDRVSVTCKASQNVGTNVAWYQQKPGQSPKALIYSASYRYSGVPDRFTGSGSGTDFTLTISNVQSEDLAEYFCQQYNSYPYTFGGGTKLEIK
notes: Ab825 conjugated to the fluorophore VT680; Neither the chain nor the site of conjugation is stated
B2: the binding result in test [4] is “binds”.

B3: VH4 N54S D56E / VK3 N92E (antibody, V domains shown)
VH: EVQLVQSGSELKKPGASVKVSCKTSGYTFTEYTMHWVRQPHGKGLEWIGGIHPNSGETSYNQRFKGRVTITVDKSTSTAYMELSSLRSEDTAVYYCARWTGDFDYWGQGTLVTVSS
VL: DIQMTQSPSAMSASVGDRVTITCKASQNVGTNVAWYQQKPGQPPKALIYSASYRYSGVPDRFSGSGSGTDFTLTISSLQAEDLAEYFCQQYESYPYTFGQGTKLEIK
notes: Humanized variant of Ab825; also called antibody (vi)
Regarding B3, the EC50 in test [1] is 0.0984 µg/mL; in test [2], 0.585 µg/mL; in test [3], 0.236 µg/mL.

B4: monoclonal antibody defined by SEQ ID 23 (LCVR) and SEQ ID 25 (HCVR) with a IgG4 (S241P) (antibody, V domains shown)
VH: EVQLVQSGSELKKPGASVKVSCKTSGYTFTEYTMHWVRQPHGKGLEWIGGIHPNSGGTSYNQRFKGRVTITVDKSTSTAYMELSSLRSEDTAVYYCARWTGDFDYWGQGTLVTVSS
VL: DIQMTQSPSAMSASVGDRVTITCKASQNVGTNVAWYQQKPGQPPKALIYSASYRYSGVPDRFSGSGSGTDFTLTISSLQAEDLAEYFCQQYQSYPYTFGQGTKLEIK
notes: also called VH4 N54S D56G / Vk3 N92Q IgG4 (S241P)
The Kd is a measure of binding affinity in units of concentration. B4 came in with a Kd in test [5] of 0.3 nM.

B5: VH4 N54Q D56E / VK3 N92E (antibody, V domains shown)
VH: EVQLVQSGSELKKPGASVKVSCKTSGYTFTEYTMHWVRQPHGKGLEWIGGIHPNQGETSYNQRFKGRVTITVDKSTSTAYMELSSLRSEDTAVYYCARWTGDFDYWGQGTLVTVSS
VL: DIQMTQSPSAMSASVGDRVTITCKASQNVGTNVAWYQQKPGQPPKALIYSASYRYSGVPDRFSGSGSGTDFTLTISSLQAEDLAEYFCQQYESYPYTFGQGTKLEIK
notes: Humanized variant of Ab825; also called antibody (v)
For B5, the EC50 in test [1] was 0.097 µg/mL; in test [2], 0.551 µg/mL; in test [3], 0.629 µg/mL.

B6: VH3 N54Q D56E / VK2 N92E (antibody, V domains shown)
VH: EVQLVQSGSELKKPGASVKISCKTSGYTFTEYTMHWVRQPHGKGLEWIGGIHPNQGETSYNQRFKGRVTLTVDKSTSTAYMELSSLRSEDTAVYYCARWTGDFDYWGQGTLVTVSS
VL: DIVMTQSPSAMSASVGDRVTITCKASQNVGTNVAWYQQKPGQPPKALIYSASYRYSGVPDRFTGSGSGTDFTLTISSLQAEDLAEYFCQQYESYPYTFGQGTKLEIK
notes: Humanized variant of Ab825; also called antibody (i)
For B6, the EC50 in test [1] amounted to 0.168 µg/mL; in test [2] it was 0.272 µg/mL; in test [3] it was 0.226 µg/mL.

B7: VH3 N54S D56G / VK3 N92Q (antibody, V domains shown)
VH: EVQLVQSGSELKKPGASVKISCKTSGYTFTEYTMHWVRQPHGKGLEWIGGIHPNSGGTSYNQRFKGRVTLTVDKSTSTAYMELSSLRSEDTAVYYCARWTGDFDYWGQGTLVTVSS
VL: DIQMTQSPSAMSASVGDRVTITCKASQNVGTNVAWYQQKPGQPPKALIYSASYRYSGVPDRFSGSGSGTDFTLTISSLQAEDLAEYFCQQYQSYPYTFGQGTKLEIK
notes: Humanized variant of Ab825; also called antibody (iv); Sample 3
On to B7, for which the EC50 was determined as 0.0381 µg/mL in test [1], 0.0778 µg/mL in test [2] and 0.0561 µg/mL in test [3].

B8: VH4 N54Q D56E / VK3 N92Q (antibody, V domains shown)
VH: EVQLVQSGSELKKPGASVKVSCKTSGYTFTEYTMHWVRQPHGKGLEWIGGIHPNQGETSYNQRFKGRVTITVDKSTSTAYMELSSLRSEDTAVYYCARWTGDFDYWGQGTLVTVSS
VL: DIQMTQSPSAMSASVGDRVTITCKASQNVGTNVAWYQQKPGQPPKALIYSASYRYSGVPDRFSGSGSGTDFTLTISSLQAEDLAEYFCQQYQSYPYTFGQGTKLEIK
notes: Humanized variant of Ab825; also called antibody (viii)
For the molecule B8, the EC50 in test [1] worked out at 0.108 µg/mL; in test [2] it was 0.523 µg/mL; in test [3], 0.48 µg/mL.

B9: VH3 N54S D56G / VK2 N92Q (antibody, V domains shown)
VH: EVQLVQSGSELKKPGASVKISCKTSGYTFTEYTMHWVRQPHGKGLEWIGGIHPNSGGTSYNQRFKGRVTLTVDKSTSTAYMELSSLRSEDTAVYYCARWTGDFDYWGQGTLVTVSS
VL: DIVMTQSPSAMSASVGDRVTITCKASQNVGTNVAWYQQKPGQPPKALIYSASYRYSGVPDRFTGSGSGTDFTLTISSLQAEDLAEYFCQQYQSYPYTFGQGTKLEIK
notes: Humanized variant of Ab825; also called antibody (ii); Sample 2
With B9, the half-maximal effective concentration (EC50) in test [1] amounted to 0.0383 µg/mL; in test [2], 0.069 µg/mL; in test [3], 0.0615 µg/mL.

B10: VH3 N54Q D56E / VK3 N92E (antibody, V domains shown)
VH: EVQLVQSGSELKKPGASVKISCKTSGYTFTEYTMHWVRQPHGKGLEWIGGIHPNQGETSYNQRFKGRVTLTVDKSTSTAYMELSSLRSEDTAVYYCARWTGDFDYWGQGTLVTVSS
VL: DIQMTQSPSAMSASVGDRVTITCKASQNVGTNVAWYQQKPGQPPKALIYSASYRYSGVPDRFSGSGSGTDFTLTISSLQAEDLAEYFCQQYESYPYTFGQGTKLEIK
notes: Humanized variant of Ab825; also called antibody (iii)
Regarding B10, the EC50 in test [1] came to 0.115 µg/mL; in test [2], 0.284 µg/mL; in test [3] it was 0.273 µg/mL.

B11: VH4 N54S D56G / VK3 N92E (antibody, V domains shown)
VH: EVQLVQSGSELKKPGASVKVSCKTSGYTFTEYTMHWVRQPHGKGLEWIGGIHPNSGGTSYNQRFKGRVTITVDKSTSTAYMELSSLRSEDTAVYYCARWTGDFDYWGQGTLVTVSS
VL: DIQMTQSPSAMSASVGDRVTITCKASQNVGTNVAWYQQKPGQPPKALIYSASYRYSGVPDRFSGSGSGTDFTLTISSLQAEDLAEYFCQQYESYPYTFGQGTKLEIK
notes: Humanized variant of Ab825; also called antibody (vii)
Take B11: the EC50 is 0.0563 µg/mL in test [1], 0.191 µg/mL in test [2] and 0.108 µg/mL in test [3].

B12: VH4 N54S D56G / VK3 N92Q (antibody, V domains shown)
VH: EVQLVQSGSELKKPGASVKVSCKTSGYTFTEYTMHWVRQPHGKGLEWIGGIHPNSGGTSYNQRFKGRVTITVDKSTSTAYMELSSLRSEDTAVYYCARWTGDFDYWGQGTLVTVSS
VL: DIQMTQSPSAMSASVGDRVTITCKASQNVGTNVAWYQQKPGQPPKALIYSASYRYSGVPDRFSGSGSGTDFTLTISSLQAEDLAEYFCQQYQSYPYTFGQGTKLEIK
notes: Humanized variant of Ab825; also called antibody (ix); Sample 4
On to B12, for which the values for the EC50 in test [1], in test [2] and in test [3] were 0.0446 µg/mL, 0.0932 µg/mL and 0.0869 µg/mL, respectively.
